# Test results as given in article PMC5167558 (Biochemistry, 2015).
# B1: His6-SPAK 63–390 (domain or fragment)
# chain: not shown
# Target: GST-SPAK 63–390 (mouse, UniProt Q9Z1W9 63-390)
# Assay: pull-down
binder,measurement,value
B1,binding result,binds
